Data: PMC3726526, “Structural and Functional Characterization of the Recombinant Death Domain from Death-Associated Protein Kinase” (PLoS ONE, 2013)

Target: T1, GST-ERK2 (extracellular-regulated kinase-2) (human, UniProt P28482 1-360)
T1 construct: full length human ERK2 in pGEX-6-P3, N-terminal GST with a PreScission protease site; The methods and results of the ITC say 'ERK2'; the discussion says that the ITC and CD were done with GST-ERK2; source: E. coli BL21 codon plus; in cell lysate, held on glutathione beads (pull-down); large scale production as previously described [25]; (ITC); not shown: GST, N-terminal, kept
Test: ITC; VP-ITC, 25 C; 19 injections of 15 ul of 159 uM GB1-DAPk-DD(L) or 250 uM GB1-DAPk-DD(S) into 1.45 ml of 8.85-18.6 uM ERK2; 50 mM HEPES pH 7.5, 50 mM NaCl, 1 mM TCEP, 1 mM EDTA
Conditions: both partners purified

T1 sequence (P28482 whole entry): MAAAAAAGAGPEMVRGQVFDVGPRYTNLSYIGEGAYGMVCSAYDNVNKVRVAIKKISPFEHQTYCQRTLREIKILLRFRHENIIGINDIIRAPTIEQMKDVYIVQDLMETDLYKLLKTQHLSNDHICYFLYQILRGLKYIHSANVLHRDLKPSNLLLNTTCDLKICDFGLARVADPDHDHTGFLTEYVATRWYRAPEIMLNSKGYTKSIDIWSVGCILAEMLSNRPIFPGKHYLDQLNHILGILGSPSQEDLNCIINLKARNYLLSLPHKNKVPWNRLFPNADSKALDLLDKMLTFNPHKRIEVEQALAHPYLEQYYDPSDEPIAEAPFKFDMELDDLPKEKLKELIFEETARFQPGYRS

B1: GB1-DAPk-DD(L) (domain or fragment, human, UniProt P53355 1293-1408, looked up)
chain: QASLGMDIHASDLNLLTRRKLSRLLDPPDPLGKDWCLLAMNLGLPDLVAKYNTSNGAPKDFLPSPLHALLREWTTYPESTVGTLMSKLRELGRRDAADFLLKASSVFKINLDGNGQ
notes: death domain region of human death-associated protein kinase (DAPk, DAPK1) with a nine-residue C-terminal extension from the Ser-rich tail, residues 1293-1408; Made by mutagenesis of a GEV vector holding residues 1293-1431; intact GB1 fusion in all experiments; Predicted monomer mass 20.6 kDa; also called long GB1-DAPk-DD construct; full-length DAPk-DD (long variant); source: E. coli BL21 codon …
Kd: 920 nM | dH: -9.18 kcal/mol | stoichiometry N: 1.03 ± 0.01

B2: GB1-DAPk-DD(S) (domain or fragment, human, UniProt P53355 1293-1399, looked up)
chain: QASLGMDIHASDLNLLTRRKLSRLLDPPDPLGKDWCLLAMNLGLPDLVAKYNTSNGAPKDFLPSPLHALLREWTTYPESTVGTLMSKLRELGRRDAADFLLKASSVF
notes: death domain region of human death-associated protein kinase (DAPk, DAPK1), residues 1293-1399; Cloned between BamHI and XhoI of plasmid GEV2; all experiments were done with the intact GB1 fusion (thrombin not used); Predicted monomer mass 19.6 kDa; By the primers the XhoI site should add Leu-Glu before the His6 tag (surmised); also called short GB1-DAPk-DD construct; full-length DAPk-DD (short …)
Kd: 1770 nM | dH: -12.7 kcal/mol | stoichiometry N: 0.97 ± 0.01
